Results as given in US20150344570A1 (published 2015).

B1: GpH7-A5/GpH7-B3 variant L235_09D/GpL16-k0 (antibody, human IgG1, kappa)
heavy 1: not shown
heavy 2: not shown
light: DIVMTQSPLSLPVTPGEPASISCQASESLVHSNRNTYLHWYLQKPGQSPQLLIYKVSNRFSGVPDRFSGSGSGTDFTLKISRVEAEDVGVYYCSQNTHVPPTFGQGTKVEIERTVAAPSVFIFPPSDEQLKSGTASVVCLLNNFYPREAKVQWKVDNALQSGNSQESVTEQDSKDSTYSLSSTLTLSKADYEKHKVYACEVTHQGLSSPVTKSFNRGEC
notes: also called He Ab L235_09D
B2: GpH7-A5/GpH7-B3 variant P238_15Y/GpL16-k0 (antibody, human IgG1, kappa)
heavy 1: not shown
heavy 2: not shown
light: B1 light
notes: also called He Ab P238_15Y
B3: GpH7-A5/GpH7-B3 variant N325_07I/GpL16-k0 (antibody, human IgG1, kappa)
heavy 1: not shown
heavy 2: not shown
light: B1 light
notes: also called He Ab N325_07I
B4: GpH7-A5/GpH7-B3 variant P238_06M/GpL16-k0 (antibody, human IgG1, kappa)
heavy 1: not shown
heavy 2: not shown
light: B1 light
notes: also called He Ab P238_06M
B5: GpH7-A5/GpH7-B3 variant L328_02A/GpL16-k0 (antibody, human IgG1, kappa)
heavy 1: not shown
heavy 2: not shown
light: B1 light
notes: also called He Ab L328_02A
B6: GpH7-A5/GpH7-B3 variant P238_16H/GpL16-k0 (antibody, human IgG1, kappa)
heavy 1: not shown
heavy 2: not shown
light: B1 light
notes: also called He Ab P238_16H
B7: GpH7-A5/GpH7-B3 variant N325_03V/GpL16-k0 (antibody, human IgG1, kappa)
heavy 1: not shown
heavy 2: not shown
light: B1 light
notes: also called He Ab N325_03V
B8: GpH7-A5/GpH7-B3 variant L235_15Y/GpL16-k0 (antibody, human IgG1, kappa)
heavy 1: not shown
heavy 2: not shown
light: B1 light
notes: also called He Ab L235_15Y
B9: GpH7-A5/GpH7-B3 variant L328_09D/GpL16-k0 (antibody, human IgG1, kappa)
heavy 1: not shown
heavy 2: not shown
light: B1 light
notes: also called He Ab L328_09D
B10: GpH7-A5/GpH7-B3 variant N325_13S/GpL16-k0 (antibody, human IgG1, kappa)
heavy 1: not shown
heavy 2: not shown
light: B1 light
notes: also called He Ab N325_13S
B11: GpH7-A5/GpH7-B3 variant L235_20W/GpL16-k0 (antibody, human IgG1, kappa)
heavy 1: not shown
heavy 2: not shown
light: B1 light
notes: also called He Ab L235_20W
B12: GpH7-A5/GpH7-B3 variant N325_08L/GpL16-k0 (antibody, human IgG1, kappa)
heavy 1: not shown
heavy 2: not shown
light: B1 light
notes: also called He Ab N325_08L
B13: GpH7-A5/GpH7-B3 variant N325_20W/GpL16-k0 (antibody, human IgG1, kappa)
heavy 1: not shown
heavy 2: not shown
light: B1 light
notes: also called He Ab N325_20W
B14: GpH7-A5/GpH7-B3 variant P238_10E/GpL16-k0 (antibody, human IgG1, kappa)
heavy 1: not shown
heavy 2: not shown
light: B1 light
notes: also called He Ab P238_10E
B15: GpH7-A5/GpH7-B3 variant L328_13S/GpL16-k0 (antibody, human IgG1, kappa)
heavy 1: not shown
heavy 2: not shown
light: B1 light
notes: also called He Ab L328_13S
B16: GpH7-A5/GpH7-B3 variant L328_10E/GpL16-k0 (antibody, human IgG1, kappa)
heavy 1: not shown
heavy 2: not shown
light: B1 light
notes: also called He Ab L328_10E
B17: GpH7-A5/GpH7-B3 variant N325_09D/GpL16-k0 (antibody, human IgG1, kappa)
heavy 1: not shown
heavy 2: not shown
light: B1 light
notes: also called He Ab N325_09D
B18: GpH7-A5/GpH7-B3 variant N325_04F/GpL16-k0 (antibody, human IgG1, kappa)
heavy 1: not shown
heavy 2: not shown
light: B1 light
notes: also called He Ab N325_04F
B19: GpH7-A5/GpH7-B3 variant P238_04F/GpL16-k0 (antibody, human IgG1, kappa)
heavy 1: not shown
heavy 2: not shown
light: B1 light
notes: also called He Ab P238_04F
B20: GpH7-A5/GpH7-B3 variant P238_03V/GpL16-k0 (antibody, human IgG1, kappa)
heavy 1: not shown
heavy 2: not shown
light: B1 light
notes: also called He Ab P238_03V
B21: GpH7-A5/GpH7-B3 variant P238_09D/GpL16-k0 (antibody, human IgG1, kappa)
heavy 1: not shown
heavy 2: not shown
light: B1 light
notes: also called He Ab P238_09D
B22: GpH7-A5/GpH7-B3 variant N325_06M/GpL16-k0 (antibody, human IgG1, kappa)
heavy 1: not shown
heavy 2: not shown
light: B1 light
notes: also called He Ab N325_06M
B23: GpH7-A5/GpH7-B3 variant N325_01G/GpL16-k0 (antibody, human IgG1, kappa)
heavy 1: not shown
heavy 2: not shown
light: B1 light
notes: also called He Ab N325_01G

Molecular target: T1, FcγRIIb extracellular domain with C-terminal His tag (human, UniProt P31994 43-217)
T1 construct: extracellular domain; also called FcgRIIb; 2b
T1 sequence (looked up): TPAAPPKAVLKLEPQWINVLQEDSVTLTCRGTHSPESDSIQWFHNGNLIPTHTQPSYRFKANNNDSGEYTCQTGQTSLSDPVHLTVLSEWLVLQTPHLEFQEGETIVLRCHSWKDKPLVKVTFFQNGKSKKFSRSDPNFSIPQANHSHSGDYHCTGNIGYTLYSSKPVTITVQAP
Assay: SPR (Biacore), relative binding

Binder	He/Con_2b
B1	106 % of HeCon Ab GpH7-A5/GpH7-B3/GpL16-k0
B2	218 % of HeCon Ab GpH7-A5/GpH7-B3/GpL16-k0
B3	171 % of HeCon Ab GpH7-A5/GpH7-B3/GpL16-k0
B4	174 % of HeCon Ab GpH7-A5/GpH7-B3/GpL16-k0
B5	144 % of HeCon Ab GpH7-A5/GpH7-B3/GpL16-k0
B6	115 % of HeCon Ab GpH7-A5/GpH7-B3/GpL16-k0
B7	111 % of HeCon Ab GpH7-A5/GpH7-B3/GpL16-k0
B8	149 % of HeCon Ab GpH7-A5/GpH7-B3/GpL16-k0
B9	199 % of HeCon Ab GpH7-A5/GpH7-B3/GpL16-k0
B10	177 % of HeCon Ab GpH7-A5/GpH7-B3/GpL16-k0
B11	147 % of HeCon Ab GpH7-A5/GpH7-B3/GpL16-k0
B12	197 % of HeCon Ab GpH7-A5/GpH7-B3/GpL16-k0
B13	169 % of HeCon Ab GpH7-A5/GpH7-B3/GpL16-k0
B14	232 % of HeCon Ab GpH7-A5/GpH7-B3/GpL16-k0
B15	149 % of HeCon Ab GpH7-A5/GpH7-B3/GpL16-k0
B16	172 % of HeCon Ab GpH7-A5/GpH7-B3/GpL16-k0
B17	124 % of HeCon Ab GpH7-A5/GpH7-B3/GpL16-k0
B18	143 % of HeCon Ab GpH7-A5/GpH7-B3/GpL16-k0
B19	312 % of HeCon Ab GpH7-A5/GpH7-B3/GpL16-k0
B20	120 % of HeCon Ab GpH7-A5/GpH7-B3/GpL16-k0
B21	221 % of HeCon Ab GpH7-A5/GpH7-B3/GpL16-k0
B22	217 % of HeCon Ab GpH7-A5/GpH7-B3/GpL16-k0
B23	101 % of HeCon Ab GpH7-A5/GpH7-B3/GpL16-k0
